From the RNAGym collection of RNA variant scans (doi:10.7554/elife.80360)

B1: Twister Ribozyme (parent)
chain: AACACUGCCAAUGCCGGUCCCAAGCCCGGAUAAAAGUGGAGGGGGCGG

Variants of: B1
Assay: self-cleavage, relative activity (ratio to wild type); higher = more cleavage; co-transcriptional

Row | Variant | self-cleavage
1 | AACACUGCCAAUGCCGGUCCCAAGCCCCGAUAUAAGUGGAGGGGGCGG [G28C A33U] | 0.556
2 | AACACUGCCAAUGCCGGUCCCAAGCCCCGAUAAUAGUGGAGGGGGCGG [G28C A34U] | 0.567
3 | AACACUGCCAAUGCCGGUCCCAAGCCCCGAUAAACGUGGAGGGGGCGG [G28C A35C] | 0.912
4 | AACACUGCCAAUGCCGGUCCCAAGCCCCGAUAAAGGUGGAGGGGGCGG [G28C A35G] | 0.596
5 | AACACUGCCAAUGCCGGUCCCAAGCCCCGAUAAAUGUGGAGGGGGCGG [G28C A35U] | 0.806
6 | AACACUGCCAAUGCCGGUCCCAAGCCCCGAUAAAAGUGGCGGGGGCGG [G28C A40C] | 0.179
7 | AACACUGCCAAUGCCGGUCCCAAGCCCCGAUAAAAGUGGGGGGGGCGG [G28C A40G] | 0.188
8 | AACACUGCCAAUGCCGGUCCCAAGCCCCAAUAAAAGUGGAGGGGGCGG [G28C G29A] | 1
9 | AACACUGCCAAUGCCGGUCCCAAGCCCCGAUAAAAUUGGAGGGGGCGG [G28C G36U] | 0.101
10 | AACACUGCCAAUGCCGGUCCCAAGCCCCGAUAAAAGUCGAGGGGGCGG [G28C G38C] | 0.531
11 | AACACUGCCAAUGCCGGUCCCAAGCCCCGAUAAAAGUUGAGGGGGCGG [G28C G38U] | 0.64
12 | AACACUGCCAAUGCCGGUCCCAAGCCCCGAUAAAAGUGAAGGGGGCGG [G28C G39A] | 0.445
13 | AACACUGCCAAUGCCGGUCCCAAGCCCCGAUAAAAGUGUAGGGGGCGG [G28C G39U] | 0.173
14 | AACACUGCCAAUGCCGGUCCCAAGCCCCGAUAAAAGUGGAGAGGGCGG [G28C G42A] | 0.185
15 | AACACUGCCAAUGCCGGUCCCAAGCCCCGAUAAAAGUGGAGCGGGCGG [G28C G42C] | 0.296
16 | AACACUGCCAAUGCCGGUCCCAAGCCCCGAUAAAAGUGGAGUGGGCGG [G28C G42U] | 0.169
17 | AACACUGCCAAUGCCGGUCCCAAGCCCCGAUAAAAGUGGAGGAGGCGG [G28C G43A] | 0.228
18 | AACACUGCCAAUGCCGGUCCCAAGCCCCGAUAAAAGUGGAGGCGGCGG [G28C G43C] | 0.149
19 | AACACUGCCAAUGCCGGUCCCAAGCCCCGAUAAAAGUGGAGGGCGCGG [G28C G44C] | 0.666
20 | AACACUGCCAAUGCCGGUCCCAAGCCCCGAUAAAAGUGGAGGGUGCGG [G28C G44U] | 0.738
21 | AACACUGCCAAUGCCGGUCCCAAGCCCCGAUAAAAGUGGAGGGGACGG [G28C G45A] | 0.552
22 | AACACUGCCAAUGCCGGUCCCAAGCCCCGAUAAAAGUGGAGGGGGCAG [G28C G47A] | 0.28
23 | AACACUGCCAAUGCCGGUCCCAAGCCCCGAUAAAAGUGGAGGGGGCUG [G28C G47U] | 0.378
24 | AACACUGCCAAUGCCGGUCCCAAGCCCCGAUAAAAGUGGAGGGGGCGC [G28C G48C] | 0.83
25 | AACACUGCCAAUGCCGGUCCCAAGCCCCGAUAAAAGUGGAGGGGGCGU [G28C G48U] | 0.543
26 | AACACUGCCAAUGCCGGUCCCAAGCCCCGAUAAAAGAGGAGGGGGCGG [G28C U37A] | 0.241
27 | AACACUGCCAAUGCCGGUCCCAAGCCCCGAUAAAAGGGGAGGGGGCGG [G28C U37G] | 0.144

Row | Variant | self-cleavage
28 | AACACUGCCAAUGCCGGUCCCAAGCCCUGAUAAAAGUGGAGGGGGCGG [G28U] | 0.91
29 | AACACUGCCAAUGCCGGUCCCAAGCCCUGUUAAAAGUGGAGGGGGCGG [G28U A30U] | 0.985
30 | AACACUGCCAAUGCCGGUCCCAAGCCCUGAUAAGAGUGGAGGGGGCGG [G28U A34G] | 0.574
31 | AACACUGCCAAUGCCGGUCCCAAGCCCUGAUAAACGUGGAGGGGGCGG [G28U A35C] | 0.888
32 | AACACUGCCAAUGCCGGUCCCAAGCCCUGAUAAAAGUGGCGGGGGCGG [G28U A40C] | 0.136
33 | AACACUGCCAAUGCCGGUCCCAAGCCCUGAUAAAAGUGGGGGGGGCGG [G28U A40G] | 0.155
34 | AACACUGCCAAUGCCGGUCCCAAGCCCUGAUAAAAGUGGUGGGGGCGG [G28U A40U] | 0.156
35 | AACACUGCCAAUGCCGGUCCCAAGCCCUGAUAAAAGUGGAGGGGGUGG [G28U C46U] | 0.922
36 | AACACUGCCAAUGCCGGUCCCAAGCCCUUAUAAAAGUGGAGGGGGCGG [G28U G29U] | 0.972
37 | AACACUGCCAAUGCCGGUCCCAAGCCCUGAUAAAAUUGGAGGGGGCGG [G28U G36U] | 0.136
38 | AACACUGCCAAUGCCGGUCCCAAGCCCUGAUAAAAGUUGAGGGGGCGG [G28U G38U] | 0.766
39 | AACACUGCCAAUGCCGGUCCCAAGCCCUGAUAAAAGUGAAGGGGGCGG [G28U G39A] | 0.362
40 | AACACUGCCAAUGCCGGUCCCAAGCCCUGAUAAAAGUGCAGGGGGCGG [G28U G39C] | 0.15
41 | AACACUGCCAAUGCCGGUCCCAAGCCCUGAUAAAAGUGGAUGGGGCGG [G28U G41U] | 0.419
42 | AACACUGCCAAUGCCGGUCCCAAGCCCUGAUAAAAGUGGAGCGGGCGG [G28U G42C] | 0.407
43 | AACACUGCCAAUGCCGGUCCCAAGCCCUGAUAAAAGUGGAGUGGGCGG [G28U G42U] | 0.238
44 | AACACUGCCAAUGCCGGUCCCAAGCCCUGAUAAAAGUGGAGGGAGCGG [G28U G44A] | 0.718
45 | AACACUGCCAAUGCCGGUCCCAAGCCCUGAUAAAAGUGGAGGGGACGG [G28U G45A] | 0.637
46 | AACACUGCCAAUGCCGGUCCCAAGCCCUGAUAAAAGUGGAGGGGCCGG [G28U G45C] | 0.175
47 | AACACUGCCAAUGCCGGUCCCAAGCCCUGAUAAAAGUGGAGGGGGCCG [G28U G47C] | 0.287
48 | AACACUGCCAAUGCCGGUCCCAAGCCCUGAUAAAAGUGGAGGGGGCGA [G28U G48A] | 0.726
49 | AACACUGCCAAUGCCGGUCCCAAGCCCUGAUAAAAGUGGAGGGGGCGC [G28U G48C] | 0.921
50 | AACACUGCCAAUGCCGGUCCCAAGCCCUGAUAAAAGUGGAGGGGGCGU [G28U G48U] | 0.809
51 | AACACUGCCAAUGCCGGUCCCAAGCCCUGAAAAAAGUGGAGGGGGCGG [G28U U31A] | 0.881
52 | AACACUGCCAAUGCCGGUCCCAAGCCCUGACAAAAGUGGAGGGGGCGG [G28U U31C] | 0.946
53 | AACACUGCCAAUGCCGGUCCCAAGCCCGACUAAAAGUGGAGGGGGCGG [G29A A30C] | 0.865
54 | AACACUGCCAAUGCCGGUCCCAAGCCCGAGUAAAAGUGGAGGGGGCGG [G29A A30G] | 0.892
